Residue numbers refer to the chain shown, from its start.
T1: human LRRC15 extracellular domain with C-terminal His tag (human, UniProt Q8TF66 22-538)
T1 construct: Recombinant, made in HEK293; the entry holds the extracellular domain and the His tag; SPR analyte; also called TPP-1545; hLRRC15 CT-His
T1 sequence: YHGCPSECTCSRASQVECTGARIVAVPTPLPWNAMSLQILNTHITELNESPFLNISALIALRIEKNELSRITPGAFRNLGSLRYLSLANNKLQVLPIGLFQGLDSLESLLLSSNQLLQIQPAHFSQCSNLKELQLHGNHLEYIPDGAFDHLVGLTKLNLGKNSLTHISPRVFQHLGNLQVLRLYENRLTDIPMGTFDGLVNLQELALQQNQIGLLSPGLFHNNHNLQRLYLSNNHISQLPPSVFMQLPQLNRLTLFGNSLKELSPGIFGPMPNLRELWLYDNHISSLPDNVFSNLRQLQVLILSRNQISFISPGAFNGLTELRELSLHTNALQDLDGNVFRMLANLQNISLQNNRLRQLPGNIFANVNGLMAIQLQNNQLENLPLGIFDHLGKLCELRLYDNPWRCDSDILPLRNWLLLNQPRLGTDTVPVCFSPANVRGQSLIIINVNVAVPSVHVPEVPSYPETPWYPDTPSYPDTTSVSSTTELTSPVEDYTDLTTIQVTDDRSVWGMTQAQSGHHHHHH

T2: cynomolgus (Macaca fascicularis) LRRC15 extracellular domain with C-terminal His tag (cynomolgus monkey (Macaca fascicularis), UniProt Q8TF66 22-538 (human entry))
T2 construct: Recombinant, made in HEK293; the entry holds the extracellular domain and the His tag; SPR analyte; also called TPP-9046
T2 chain: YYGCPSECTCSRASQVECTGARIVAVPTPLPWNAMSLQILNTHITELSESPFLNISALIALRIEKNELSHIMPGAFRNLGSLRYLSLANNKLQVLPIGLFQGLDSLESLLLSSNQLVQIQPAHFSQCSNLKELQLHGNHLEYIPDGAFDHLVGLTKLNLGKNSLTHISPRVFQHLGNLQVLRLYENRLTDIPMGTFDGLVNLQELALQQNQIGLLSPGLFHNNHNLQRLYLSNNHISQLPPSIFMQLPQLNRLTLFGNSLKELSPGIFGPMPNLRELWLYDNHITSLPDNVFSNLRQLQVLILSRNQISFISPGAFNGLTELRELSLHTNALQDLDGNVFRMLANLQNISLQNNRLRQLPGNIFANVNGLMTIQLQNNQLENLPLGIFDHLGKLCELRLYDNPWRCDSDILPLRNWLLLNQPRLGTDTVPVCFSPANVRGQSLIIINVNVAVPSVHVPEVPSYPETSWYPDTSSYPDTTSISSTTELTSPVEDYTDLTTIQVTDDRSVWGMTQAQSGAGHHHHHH

B1: TPP-17405 (antibody, human IgG1, kappa, V domains shown)
VH: EVQLVQSGAEVKKPGASVKVSCKASGYKFSSYWIEWVKQAPGQGLEWIGEILPGSDTTNYNEKFKDRATFTSDTSINTAYMELSRLRSDDTAVYYCARDRGNYRAWFQYWGQGTLVTVSS
VL: DIQMTQSPSSLSASVGDRVTITCRASQRISSYLNWYQQKPGGAPKFLIYYASSLQSGVPSRFSGSGSGTDYTLTISSLQPEDFATYYCDQGLELPWTFGGGTKVEIKR
notes: also called 438H-M345-F05-hIgG1Kappa
B2: TPP-17418 (antibody, human IgG1, kappa, V domains shown)
VH: B1 VH with T57W
VL: B1 VL with R28S, D89Q, L92F, E93S
notes: also called 438H-M308-H05_B-hIgG1Kappa
B3: TPP-17419 (antibody, human IgG1, kappa, V domains shown)
VH: B1 VH with T57W
VL: B1 VL with A25I, R28S, D89Q, E93R
notes: also called 438H-M307-H07-hIgG1Kappa
B4: TPP-1633 (antibody, human IgG1, kappa, V domains shown)
VH: EVQLLESGGGLVQPGGSLRLSCAASGFTFSGYMMQWVRQAPGKGLEWVSGIYPSGGYTNYADSVKGRFTISRDNSKNTLYLQMNSLRAEDTATYYCAREKASDLSGSYSEALDYWGQGTLVTVSS
VL: DIQMTQSPDSLSASVGDRVTITCRASQDVGSWLAWYQQKPGKAPKLLIFAASSLESGIPSRFSGSGSGTDFTLTISSLQPEDFATYYCQQANGFPLTFGGGTKVEIKR
notes: also called 060E-M016-G14-hIgG1
B5: TPP-17073 (antibody, human IgG1, kappa, V domains shown)
VH: B4 VH with Q35S, G55A, N59L, T93V, S102A, S105F
VL: B4 VL with S53Y
notes: also called 438H-M113-N15-hIgG1
B6: TPP-17074 (antibody, human IgG1, kappa, V domains shown)
VH: B4 VH with Q35S, T58A, N59L, T93V, S102A, S105F
VL: B4 VL with S53Y
notes: also called 438H-M161-K22-hIgG1
B7: TPP-14392 (antibody, human IgG1, kappa, V domains shown)
VH: B4 VH with Q35S, G55P, N59Y, T93V
VL: B4 VL with S53Y
notes: also called 13612-rec05-hIgG1Kappa

Target: T1, human LRRC15 extracellular domain with …
Assay: SPR Biacore T200, 25°C, antibody captured, LRRC15 analyte
Method: (§1) To assess the binding kinetics and affinity of anti-LRRC15 antibodies as well as their species cross-reactivity profile, binding assays were conducted using surface plasmon resonance (SPR). Binding assays were performed on a Biacore T200 instrument at 25° C. using assay buffer HBS EP+, 1 mg/ml BSA, 300 mM NaCl, 0.05% NaN3. Antibodies were captured via anti-human Fc IgGs covalently amine coupled to a CM5 sensor chip and human, mouse and cynomolgus LRRC15 were used as analytes in a concentration series from 1.56-200 nM in multi cycle kinetics mode. […] Obtained sensorgrams were fitted to a 1:1 Langmuir binding model to derive kinetic data.

Kd [nM]	Binder
0.86	B1
1.1	B2
3.4	B3
150	B4
0.21	B5
0.19	B6
5.9	B7

Target: T2, cynomolgus (Macaca fascicularis) LRRC15 …
Assay: as above
Method: as §1

Kd [nM]	Binder
0.78	B1
0.99	B2
2.5	B3
190	B4
0.18	B5
10	B7

Target: T1, human LRRC15 extracellular domain with …
Assay: calculated from SPR kd, 25°C
Method: (§2) To assess if anti-LRRC-15 antibodies show a difference in binding at different temperatures, binding assays were conducted using surface plasmon resonance (SPR). Binding assays were performed on a Biacore T200 instrument at temperatures of 10° C., 20° C., 25° C. and 37° C. with assay buffer HBS EP+, 1 mg/ml BSA (bovine serum albumine), 300 mM NaCl, 0.05% NaN₃. Antibodies were captured via anti-human Fc IgGs covalently amine coupled to a CM5 sensor chip and human LRRC15 was used as an analyte in a concentration series from 1.56-200 nM in multi cycle kinetics mode. Pre-experiments were conducted to have an equal capture level at each temperature. Obtained sensorgrams were fitted to a 1:1 Langmuir binding model to derive kinetic data.

Complex Half Life [h]	Binder
0.00833	B4
1.6	B6
0.567	B7

Target: T1, human LRRC15 extracellular domain with …
Assay: calculated from SPR kd, 10°C
Method: as §2

Complex Half Life [h]	Binder
0.138	B4
10.7	B6
3.21	B7

Target: T1, human LRRC15 extracellular domain with …
Assay: calculated from SPR kd, 20°C
Method: as §2

Complex Half Life [h]	Binder
3.16	B6
1.48	B7

Target: T1, human LRRC15 extracellular domain with …
Assay: SPR thermodynamics (van't Hoff/Eyring), 10-37°C
Method: as §2, with “Thermodynamics help to explain why an interaction is happening and what the driving forces for the interaction are. To” for “To”, “the thermodynamic parameters for anti-LRRC15” for “if anti-LRRC-15”, “antibodies” for “antibodies show a difference in binding at different temperatures,”, “BSA,” for “BSA (bovine serum albumine),”, “NaN3.” for “NaN₃.”, “data. Thermodynamic parameters were obtained using the integrated thermodynamics wizard in the Biacore T200 software. Van′t Hoff and Eyring plots were calculated and plotted and thermodynamic parameters were derived.” for “data.”

-TΔS [kcal/mol]	ΔG^0 [kcal/mol]	ΔH^0 [kcal/mol]	Binder
9.56	-12.9	-22.7	B6
15.3	-11	-26.3	B7

Target: T1, human LRRC15 extracellular domain with …
Assay: SPR at 10-37°C (Example 3)
Method: as §2

Temperature dependent loss in binding affinity [fold]	Binder
> 9	B4
33.3	B6
56.9	B7

Target: T1, human LRRC15 extracellular domain with …
Assay: binding of the purified IgG, method not given

Kd [nM]	Binder
~200	B4

Target: T1, human LRRC15 extracellular domain with …
Assay: SPR Biacore T200, antibody captured, LRRC15 analyte, 25°C
Method: as §2

Kd [nM]	Binder
160	B4
0.22	B6
6.8	B7

Target: T1, human LRRC15 extracellular domain with …
Assay: SPR Biacore T200, antibody captured, LRRC15 analyte, 20°C
Method: as §2

Kd [nM]	Binder
80	B4
0.14	B6
2.9	B7

Target: T1, human LRRC15 extracellular domain with …
Assay: SPR Biacore T200, antibody captured, LRRC15 analyte, 37°C
Method: as §2

Kd [nM]	Binder
1.9	B6
91	B7

Target: T1, human LRRC15 extracellular domain with …
Assay: SPR (Example 6), overview table, repeats Table 9; head prints [M^-1]
Method: as §1

Kd [nM]	Binder
0.86	B1
1.1	B2
3.4	B3
150	B4
0.21	B5
0.19	B6
5.9	B7

Target: T2, cynomolgus (Macaca fascicularis) LRRC15 …
Assay: as above
Method: as §1

Kd [nM]	Binder
0.78	B1
0.99	B2
2.5	B3
190	B4
0.18	B5
10	B7

Target: T1, human LRRC15 extracellular domain with …
Assay: calculated from SPR kd, 37°C
Method: as §2

Complex Half Life [min]	Binder
2.3	B7

Target: T1, human LRRC15 extracellular domain with …
Assay: SPR Biacore T200, antibody captured, LRRC15 analyte, 10°C
Method: as §2

Kd [nM]	Binder
18	B4
0.057	B6

From patent publication US20240108766A1 (Bayer, published 2024)
